Key:
[1] = target: AF488-αBc_(C176) (human alphaB-crystallin with an additional C-terminal cysteine, labelled with Alexa Fluor 488) (human); assay: single-molecule TIRF with photobleaching step analysis; αBcC176 in the absence of CLIC1C24, with or without cross-linking, diluted for TIRF microscopy; size of the oligomers
[2] = target: AF647-CLIC1C24 (CLIC1 W23F, C59A, C89A, C178A, C191A, C223A, labelled with Alexa Fluor 647 at C24) (UniProt O00299); assay: two-colour single-molecule TIRF colocalisation with photobleaching step analysis; AF647-CLIC1C24 (1 μM) with AF488-αBcC176 (2 μM) at 37 °C in 50 mM phosphate buffer pH 7.4; early timepoints (0.25-0.5 h); diluted 1:1000, CLIC1 held by an anti-6X His-tag antibody; settings: scale: αBc subunits per CLIC1 subunit
[3] = target: AF647-CLIC1C24 (CLIC1 W23F, C59A, C89A, C178A, C191A, C223A, labelled with Alexa Fluor 647 at C24) (UniProt O00299); assay: two-colour single-molecule TIRF colocalisation with photobleaching step analysis; AF647-CLIC1C24 (1 μM) with AF488-αBcC176 (2 μM) at 37 °C in 50 mM phosphate buffer pH 7.4; later timepoints (1-10 h); diluted 1:1000, CLIC1 held by an anti-6X His-tag antibody; with or without cross-linking before dilution
[4] = target: AF555-CLIC1C24 (CLIC1 W23F, C59A, C89A, C178A, C191A, C223A, labelled with Alexa Fluor 555 at C24) (UniProt O00299); assay: FRET or BRET; single-molecule FRET by TIRF microscopy; AF555-CLIC1C24 (1 μM) with AF647-αBcC176 (2 μM) for 20 h at 37 °C in 50 mM phosphate buffer pH 7.4, diluted 1:1000, CLIC1 held on the coverslip by an anti-6X His-tag antibody; imaged at about 20 °C

| stoichiometry N [1] | stoichiometry N [2] | percent of CLIC1C24 colocalized with αBcC176 (maximum, after 4 h) [3] | FRET efficiency (E) [4] | Substance |
| --- | --- | --- | --- | --- |
| < 10 subunits | 1 | 50% | – | AF488-αBc_(C176) (human alphaB-crystallin with an additional C-terminal cysteine, labelled with Alexa Fluor 488) (natural protein) |
| – | – | – | 0.8 to 1 | AF647-αBc_(C176) (human alphaB-crystallin with an additional C-terminal cysteine, labelled with Alexa Fluor 647) (natural protein) |

Source: PMC7921601
